# Paper PMC9482650, “Quantitative fragmentomics allow affinity mapping of interactomes” (Nature Communications, 2022)
# Assays:
# Test in all cases: holdup assay
# Set-up in all cases: key: below the threshold = too weak to quantify, mostly under pKd 3.1 to 4
# PDZD2_2, O15018 = target: T1, PDZD2_2, O15018
# T1 sequence (O15018 329-429, limits assumed, looked up): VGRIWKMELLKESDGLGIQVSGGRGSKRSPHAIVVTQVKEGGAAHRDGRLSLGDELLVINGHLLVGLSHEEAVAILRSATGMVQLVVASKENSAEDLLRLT
# Inadl_8, Q8NI35 = target: Inadl_8, Q8NI35
# Sequence of Inadl_8, Q8NI35 (Q8NI35 1425-1530): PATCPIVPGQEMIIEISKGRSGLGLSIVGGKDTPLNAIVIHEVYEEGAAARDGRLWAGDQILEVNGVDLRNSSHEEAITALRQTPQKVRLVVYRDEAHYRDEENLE
# GRIP2_3, Q9C0E4 = target: GRIP2_3, Q9C0E4
# Sequence of GRIP2_3, Q9C0E4 (Q9C0E4 238-339): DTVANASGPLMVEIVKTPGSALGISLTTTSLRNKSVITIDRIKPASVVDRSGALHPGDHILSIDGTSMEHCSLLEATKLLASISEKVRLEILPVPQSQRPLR
# Inadl_10, Q8NI35 = target: Inadl_10, Q8NI35
# Sequence of Inadl_10, Q8NI35 (Q8NI35 1673-1763): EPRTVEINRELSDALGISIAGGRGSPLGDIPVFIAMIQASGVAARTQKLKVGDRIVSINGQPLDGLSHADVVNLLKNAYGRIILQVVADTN
# MAGI2_5, Q86UL8 = target: MAGI2_5, Q86UL8
# Sequence of MAGI2_5, Q86UL8 (Q86UL8 915-1017): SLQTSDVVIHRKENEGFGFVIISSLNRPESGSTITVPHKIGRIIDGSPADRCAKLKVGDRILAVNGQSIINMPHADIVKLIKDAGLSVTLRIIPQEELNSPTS
# SYNJ2BP, P57105 = target: T2, SYNJ2BP, P57105
# T2 sequence (P57105 8-110, limits assumed, looked up): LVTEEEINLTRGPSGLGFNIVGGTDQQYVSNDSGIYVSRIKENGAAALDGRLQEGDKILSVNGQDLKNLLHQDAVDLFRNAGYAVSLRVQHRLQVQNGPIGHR
# FRMPD4, Q14CM0 = target: FRMPD4, Q14CM0
# Sequence of FRMPD4, Q14CM0 (Q14CM0 67-160): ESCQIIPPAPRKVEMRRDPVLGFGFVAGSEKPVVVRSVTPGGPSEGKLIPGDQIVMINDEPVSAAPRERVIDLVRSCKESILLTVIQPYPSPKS
# DLG4_3, P78352 = target: DLG4_3, P78352
# Sequence of DLG4_3, P78352 (P78352 306-403): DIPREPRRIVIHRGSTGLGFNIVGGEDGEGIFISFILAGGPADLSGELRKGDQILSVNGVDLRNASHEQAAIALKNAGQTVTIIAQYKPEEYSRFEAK
# SCRIB_2, Q14160 = target: SCRIB_2, Q14160
# Sequence of SCRIB_2, Q14160 (Q14160 857-960): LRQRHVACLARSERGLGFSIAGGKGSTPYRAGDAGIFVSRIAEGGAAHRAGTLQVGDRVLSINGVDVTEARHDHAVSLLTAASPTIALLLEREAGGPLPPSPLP
# DLG5_1, Q8TDM6 = target: DLG5_1, Q8TDM6
# Sequence of DLG5_1, Q8TDM6 (Q8TDM6 617-713): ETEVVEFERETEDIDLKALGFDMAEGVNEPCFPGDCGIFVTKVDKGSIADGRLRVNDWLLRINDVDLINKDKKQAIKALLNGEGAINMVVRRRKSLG
# IL16_3, Q14005 = target: IL16_3, Q14005
# Sequence of IL16_3, Q14005 (Q14005 1107-1207): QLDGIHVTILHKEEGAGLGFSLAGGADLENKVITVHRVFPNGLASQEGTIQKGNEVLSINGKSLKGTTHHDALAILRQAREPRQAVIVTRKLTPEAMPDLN
# Inadl_5, Q8NI35 = target: Inadl_5, Q8NI35
# Sequence of Inadl_5, Q8NI35 (Q8NI35 673-780): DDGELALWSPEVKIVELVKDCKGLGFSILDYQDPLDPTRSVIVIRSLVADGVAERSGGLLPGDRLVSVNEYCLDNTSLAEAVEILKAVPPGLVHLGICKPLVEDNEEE
# TX1BP3, O14907 = target: T3, TX1BP3, O14907
# T3 sequence (O14907 10-122, limits assumed, looked up): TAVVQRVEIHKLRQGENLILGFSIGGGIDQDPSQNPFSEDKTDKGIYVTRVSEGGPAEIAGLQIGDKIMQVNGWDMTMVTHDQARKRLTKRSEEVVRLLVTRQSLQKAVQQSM
# LNX1_2, Q8TBB1 = target: LNX1_2, Q8TBB1
# Sequence of LNX1_2, Q8TBB1 (Q8TBB1 371-470): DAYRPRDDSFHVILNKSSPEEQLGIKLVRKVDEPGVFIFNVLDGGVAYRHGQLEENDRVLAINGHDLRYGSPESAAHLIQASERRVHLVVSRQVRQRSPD
# GORASP1, Q9BQQ3 = target: GORASP1, Q9BQQ3
# Sequence of GORASP1, Q9BQQ3 (Q9BQQ3 1-208): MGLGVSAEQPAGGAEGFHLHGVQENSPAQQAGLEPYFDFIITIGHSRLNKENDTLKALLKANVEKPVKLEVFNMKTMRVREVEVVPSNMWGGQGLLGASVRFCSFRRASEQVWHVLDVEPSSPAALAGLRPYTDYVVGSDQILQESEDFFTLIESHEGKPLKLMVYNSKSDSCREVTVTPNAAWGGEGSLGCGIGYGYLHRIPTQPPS
# MAGI2_3, Q86UL8 = target: MAGI2_3, Q86UL8
# Sequence of MAGI2_3, Q86UL8 (Q86UL8 600-682): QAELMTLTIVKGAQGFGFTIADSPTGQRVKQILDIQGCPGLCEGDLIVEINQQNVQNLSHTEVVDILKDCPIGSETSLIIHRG
# DFNB31_2, Q9P202 = target: T4, DFNB31_2, Q9P202
# T4 sequence (Q9P202 274-371, limits assumed, looked up): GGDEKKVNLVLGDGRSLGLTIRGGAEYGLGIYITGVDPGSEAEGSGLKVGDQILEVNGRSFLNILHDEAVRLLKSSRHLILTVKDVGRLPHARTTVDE
# HTRA3, P83110 = target: T5, HTRA3, P83110
# T5 sequence (P83110 354-453, limits assumed, looked up): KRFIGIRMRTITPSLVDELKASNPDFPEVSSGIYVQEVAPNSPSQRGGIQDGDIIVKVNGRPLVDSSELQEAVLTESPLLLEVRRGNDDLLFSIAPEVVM
# ARHGAP21, Q5T5U3 = target: T6, ARHGAP21, Q5T5U3
# T6 sequence (Q5T5U3 45-169, limits assumed, looked up): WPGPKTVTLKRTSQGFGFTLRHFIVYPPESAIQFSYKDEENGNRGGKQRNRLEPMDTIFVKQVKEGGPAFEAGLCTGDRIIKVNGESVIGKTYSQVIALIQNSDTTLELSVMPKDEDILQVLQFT
# LIN7A, O14910 = target: T7, LIN7A, O14910
# T7 sequence (O14910 103-200, limits assumed, looked up): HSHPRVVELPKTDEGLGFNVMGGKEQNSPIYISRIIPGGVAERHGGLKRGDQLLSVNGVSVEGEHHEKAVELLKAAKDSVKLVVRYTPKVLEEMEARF
# PICK1, Q9NRD5 = target: PICK1, Q9NRD5
# Sequence of PICK1, Q9NRD5 (Q9NRD5 17-115): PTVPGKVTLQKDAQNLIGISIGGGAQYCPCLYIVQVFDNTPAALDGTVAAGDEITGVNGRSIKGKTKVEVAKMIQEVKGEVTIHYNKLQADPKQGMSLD
# HTRA1, Q92743 = target: HTRA1, Q92743
# Sequence of HTRA1, Q92743 (Q92743 360-477): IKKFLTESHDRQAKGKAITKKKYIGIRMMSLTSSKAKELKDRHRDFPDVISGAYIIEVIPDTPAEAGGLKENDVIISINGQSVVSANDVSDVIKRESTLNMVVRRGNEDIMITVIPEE
# DLG2_2, Q15700 = target: DLG2_2, Q15700
# Sequence of DLG2_2, Q15700 (Q15700 189-283): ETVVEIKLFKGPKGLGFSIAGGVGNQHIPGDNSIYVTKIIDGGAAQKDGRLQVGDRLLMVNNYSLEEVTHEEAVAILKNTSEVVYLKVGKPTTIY
# GRIP1_7, Q9Y3R0 = target: T8, GRIP1_7, Q9Y3R0
# T8 sequence (Q9Y3R0 999-1096, limits assumed, looked up): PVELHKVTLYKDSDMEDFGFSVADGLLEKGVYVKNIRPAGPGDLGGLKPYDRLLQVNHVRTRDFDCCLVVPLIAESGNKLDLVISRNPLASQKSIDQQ
# FRMPD2_1, Q68DX3 = target: FRMPD2_1, Q68DX3
# Sequence of FRMPD2_1, Q68DX3 (Q68DX3 770-861): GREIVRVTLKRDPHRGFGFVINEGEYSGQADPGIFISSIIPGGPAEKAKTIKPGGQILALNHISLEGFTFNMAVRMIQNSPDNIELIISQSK
# MAGI3_2, Q5TCQ9 = target: MAGI3_2, Q5TCQ9
# Sequence of MAGI3_2, Q5TCQ9 (Q5TCQ9 398-503): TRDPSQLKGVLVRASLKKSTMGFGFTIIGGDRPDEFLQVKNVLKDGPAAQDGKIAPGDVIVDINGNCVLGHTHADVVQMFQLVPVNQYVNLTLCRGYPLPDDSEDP
# TJP1_2, Q07157 = target: TJP1_2, Q07157
# Sequence of TJP1_2, Q07157 (Q07157 181-274): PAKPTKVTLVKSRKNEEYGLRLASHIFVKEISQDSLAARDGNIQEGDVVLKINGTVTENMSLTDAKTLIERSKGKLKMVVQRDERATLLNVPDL
# GRID2IP_2, A4D2P6 = target: GRID2IP_2, A4D2P6
# Sequence of GRID2IP_2, A4D2P6 (A4D2P6 272-370): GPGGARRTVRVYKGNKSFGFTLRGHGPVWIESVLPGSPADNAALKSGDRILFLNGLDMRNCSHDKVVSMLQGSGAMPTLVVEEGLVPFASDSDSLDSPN
# Inadl_2, Q8NI35 = target: Inadl_2, Q8NI35
# Sequence of Inadl_2, Q8NI35 (Q8NI35 238-335): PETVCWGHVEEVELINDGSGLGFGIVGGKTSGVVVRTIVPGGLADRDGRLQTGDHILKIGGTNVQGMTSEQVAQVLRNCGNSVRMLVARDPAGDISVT
# [1] = plain residues with an end cap or a label only (N-terminal biotin on a linker: ado-ado)
# [2] = plain residues with an end cap or a label only (N-terminal biotin on a linker: (peg)3)
binder,measurement,setting,value
"RTQSSDSAYV [GJD2, Q9UKL4]",pKd,"PDZD2_2, O15018; [1]",5.15
same,pKd,"Inadl_8, Q8NI35; [1]",3.7
same,pKd,"GRIP2_3, Q9C0E4; [1]",below the threshold
same,pKd,"Inadl_10, Q8NI35; [1]",below the threshold
same,pKd,"MAGI2_5, Q86UL8; [1]",below the threshold
same,pKd,"SYNJ2BP, P57105; [1]",3.66
same,pKd,"FRMPD4, Q14CM0; [1]",3.86
same,pKd,"DLG4_3, P78352; [1]",below the threshold
same,pKd,"SCRIB_2, Q14160; [1]",below the threshold
same,pKd,"DLG5_1, Q8TDM6; [1]",below the threshold
same,pKd,"IL16_3, Q14005; [1]",below the threshold
same,pKd,"Inadl_5, Q8NI35; [1]",3.5
same,pKd,"TX1BP3, O14907; [1]",below the threshold
same,pKd,"LNX1_2, Q8TBB1; [1]",4.11
same,pKd,"GORASP1, Q9BQQ3; [1]",3.67
same,pKd,"MAGI2_3, Q86UL8; [1]",below the threshold
same,pKd,"DFNB31_2, Q9P202; [1]",below the threshold
same,pKd,"HTRA3, P83110; [1]",4.68
same,pKd,"ARHGAP21, Q5T5U3; [1]",3.62
same,pKd,"LIN7A, O14910; [1]",below the threshold
same,pKd,"PICK1, Q9NRD5; [1]",below the threshold
same,pKd,"HTRA1, Q92743; [1]",4.6
same,pKd,"DLG2_2, Q15700; [1]",below the threshold
same,pKd,"GRIP1_7, Q9Y3R0; [1]",below the threshold
same,pKd,"FRMPD2_1, Q68DX3; [1]",3.66
same,pKd,"MAGI3_2, Q5TCQ9; [1]",below the threshold
same,pKd,"TJP1_2, Q07157; [1]",below the threshold
same,pKd,"GRID2IP_2, A4D2P6; [1]",below the threshold
same,pKd,"Inadl_2, Q8NI35; [1]",below the threshold
"GQETPLNTFC [MAP7D2, Q96T17]",pKd,"PDZD2_2, O15018; [1]",4.03
same,pKd,"Inadl_8, Q8NI35; [1]",below the threshold
same,pKd,"GRIP2_3, Q9C0E4; [1]",below the threshold
same,pKd,"Inadl_10, Q8NI35; [1]",below the threshold
same,pKd,"MAGI2_5, Q86UL8; [1]",below the threshold
same,pKd,"SYNJ2BP, P57105; [1]",below the threshold
same,pKd,"FRMPD4, Q14CM0; [1]",below the threshold
same,pKd,"DLG4_3, P78352; [1]",3.6
same,pKd,"SCRIB_2, Q14160; [1]",below the threshold
same,pKd,"DLG5_1, Q8TDM6; [1]",below the threshold
same,pKd,"IL16_3, Q14005; [1]",below the threshold
same,pKd,"Inadl_5, Q8NI35; [1]",below the threshold
same,pKd,"TX1BP3, O14907; [1]",4.04
same,pKd,"LNX1_2, Q8TBB1; [1]",below the threshold
same,pKd,"GORASP1, Q9BQQ3; [1]",3.61
same,pKd,"MAGI2_3, Q86UL8; [1]",below the threshold
same,pKd,"DFNB31_2, Q9P202; [1]",below the threshold
same,pKd,"HTRA3, P83110; [1]",4.55
same,pKd,"ARHGAP21, Q5T5U3; [1]",below the threshold
same,pKd,"LIN7A, O14910; [1]",below the threshold
same,pKd,"PICK1, Q9NRD5; [1]",below the threshold
same,pKd,"HTRA1, Q92743; [1]",3.79
same,pKd,"DLG2_2, Q15700; [1]",below the threshold
same,pKd,"GRIP1_7, Q9Y3R0; [1]",below the threshold
same,pKd,"FRMPD2_1, Q68DX3; [1]",below the threshold
same,pKd,"MAGI3_2, Q5TCQ9; [1]",below the threshold
same,pKd,"TJP1_2, Q07157; [1]",below the threshold
same,pKd,"GRID2IP_2, A4D2P6; [1]",3.88
same,pKd,"Inadl_2, Q8NI35; [1]",below the threshold
"YDEPTTTTSVPL [SARS-Cov2-3a, P0DTC3]",pKd,"PDZD2_2, O15018; [2]",below the threshold
same,pKd,"Inadl_8, Q8NI35; [2]",below the threshold
same,pKd,"GRIP2_3, Q9C0E4; [2]",below the threshold
same,pKd,"Inadl_10, Q8NI35; [2]",below the threshold
same,pKd,"MAGI2_5, Q86UL8; [2]",below the threshold
same,pKd,"SYNJ2BP, P57105; [2]",below the threshold
same,pKd,"FRMPD4, Q14CM0; [2]",3.97
same,pKd,"DLG4_3, P78352; [2]",below the threshold
same,pKd,"SCRIB_2, Q14160; [2]",below the threshold
same,pKd,"DLG5_1, Q8TDM6; [2]",below the threshold
same,pKd,"IL16_3, Q14005; [2]",below the threshold
same,pKd,"Inadl_5, Q8NI35; [2]",below the threshold
same,pKd,"TX1BP3, O14907; [2]",below the threshold
same,pKd,"LNX1_2, Q8TBB1; [2]",below the threshold
same,pKd,"GORASP1, Q9BQQ3; [2]",below the threshold
same,pKd,"MAGI2_3, Q86UL8; [2]",below the threshold
same,pKd,"DFNB31_2, Q9P202; [2]",below the threshold
same,pKd,"HTRA3, P83110; [2]",below the threshold
same,pKd,"ARHGAP21, Q5T5U3; [2]",3.75
same,pKd,"LIN7A, O14910; [2]",below the threshold
same,pKd,"PICK1, Q9NRD5; [2]",below the threshold
same,pKd,"HTRA1, Q92743; [2]",below the threshold
same,pKd,"DLG2_2, Q15700; [2]",below the threshold
same,pKd,"GRIP1_7, Q9Y3R0; [2]",below the threshold
same,pKd,"FRMPD2_1, Q68DX3; [2]",below the threshold
same,pKd,"MAGI3_2, Q5TCQ9; [2]",below the threshold
same,pKd,"TJP1_2, Q07157; [2]",4.56
same,pKd,"GRID2IP_2, A4D2P6; [2]",below the threshold
same,pKd,"Inadl_2, Q8NI35; [2]",below the threshold
